Data on 3 molecules can be found in article PMC8956953 (The Journal of Biological Chemistry, 2022).

B1: YES1, spotted on the ProtoArray (enzyme)
chain: not shown
notes: human YES1 kinase; not shown: GST, N-terminal, kept
B2: RPS6KA6, spotted on the ProtoArray (enzyme, human, UniProt Q9UK32 1-745, looked up)
chain: MLPFAPQDEPWDREMEVFSGGGASSGEVNGLKMVDEPMEEGEADSCHDEGVVKEIPITHHVKEGYEKADPAQFELLKVLGQGSFGKVFLVRKKTGPDAGQLYAMKVLKKASLKVRDRVRTKMERDILVEVNHPFIVKLHYAFQTEGKLYLILDFLRGGDVFTRLSKEVLFTEEDVKFYLAELALALDHLHQLGIVYRDLKPENILLDEIGHIKLTDFGLSKESVDQEKKAYSFCGTVEYMAPEVVNRRGHSQSADWWSYGVLMFEMLTGTLPFQGKDRNETMNMILKAKLGMPQFLSAEAQSLLRMLFKRNPANRLGSEGVEEIKRHLFFANIDWDKLYKREVQPPFKPASGKPDDTFCFDPEFTAKTPKDSPGLPASANAHQLFKGFSFVATSIAEEYKITPITSANVLPIVQINGNAAQFGEVYELKEDIGVGSYSVCKRCIHATTNMEFAVKIIDKSKRDPSEEIEILMRYGQHPNIITLKDVFDDGRYVYLVTDLMKGGELLDRILKQKCFSEREASDILYVISKTVDYLHCQGVVHRDLKPSNILYMDESASADSIRICDFGFAKQLRGENGLLLTPCYTANFVAPEVLMQQGYDAACDIWSLGVLFYTMLAGYTPFANGPNDTPEEILLRIGNGKFSLSGGNWDNISDGAKDLLSHMLHMDPHQRYTAEQILKHSWITHRDQLPNDQPKRNDVSHVVKGAMVATYSALTHKTFQPVLEPVAASSLAQRRSMKKRTSTGL
notes: human RPS6KA6 kinase; not shown: GST, N-terminal, kept
B3: S100 calcium-binding protein B, spotted on the ProtoArray (natural protein, human, UniProt P04271 1-92, looked up)
chain: MSELEKAMVALIDVFHQYSGREGDKHKLKKSELKELINNELSHFLEEIKEQEVVDKVMETLDNDGDGECDFQEFMAFVAMVTTACHEFFEHE
notes: also called S100β; not shown: GST, N-terminal, kept

The target in the experiment is T1, recombinant human full-length tau protein (htau40) (human, UniProt P10636-8 1-441).
T1 construct: human microtubule-associated protein tau, longest CNS splicing variant 2N4R (htau40); also called recombinant htau40; 2N4R; source: E. coli-derived recombinant protein
In words: peptide or protein array; ProtoArray Human Protein Microarrays v5.1, ~9000 N-terminal GST-tagged human proteins spotted on nitrocellulose-coated slides; htau40 at 5 and 50 ng/μl in probe buffer (1x PBS, 0.1% Tween-20, 1x synthetic block), 90 min at 4 °C; detected with anti-tau K9JA and Alexa Fluor 647 secondary antibody. Particulars: both partners purified.
B1: the binding result is listed as “binds”.
With B2, the binding result was “binds”.
Regarding B3, the binding result was “binds”.
